Experiments:
[1] = compound: CC[C@H](C)[C@H](NC(=O)[C@H](CC(C)C)NC(=O)[C@H](CCCNC(=N)N)NC(C)=O)C(=O)N[C@@H](CCCCNC(C)=O)C(=O)Nc1ccc2c(C)cc(=O)oc2c1; test: (§1) Substrate activity at human N-terminal His-tagged SIRT2 (56 to 356 residues) expressed in Escherichia coli assessed as Km measured after 1 hr in presence of NAD+ and trypsin by Michaelis-Menten kinetic model based fluorescence assay
[2] = compound: CCCCCCCCCC(=O)NCCCC[C@H](NC(=O)[C@H](CC(=O)O)NC(=O)[C@@H](NC(=O)[C@H](CCC(=O)O)NC(C)=O)[C@@H](C)O)C(=O)Nc1ccc2c(C)cc(=O)oc2c1; test: as §1
[3] = compound: CCCCCCCCCCCCCC(=O)NCCCC[C@H](NC(=O)OCc1ccccc1)C(=O)Nc1ccc2c(C)cc(=O)oc2c1; test: as §1
[4] = compound: CCCCCCCCCC(=O)NCCCC[C@H](NC(=O)[C@@H](NC(=O)[C@H](CO)NC(=O)[C@H](CO)NC(C)=O)[C@@H](C)CC)C(=O)Nc1ccc2c(C)cc(=O)oc2c1; test: as §1
[5] = compound: CC(=O)NCCCC[C@H](NC(=O)[C@H](CC(C)C)NC(=O)[C@H](CCCCN)NC(=O)[C@H](Cc1ccc(O)cc1)NC(C)=O)C(=O)Nc1ccc2c(C)cc(=O)oc2c1; test: as §1
[6] = compound: CC(=O)NCCCC[C@H](NC(=O)OCc1ccccc1)C(=O)Nc1ccc2c(C)cc(=O)oc2c1; test: as §1
[7] = compound: CC[C@H](C)[C@H](NC(=O)[C@H](CC(C)C)NC(=O)[C@H](CCCNC(=N)N)NC(C)=O)C(=O)N[C@@H](CCCCNC(C)=O)C(=O)Nc1ccc2c(C)cc(=O)oc2c1; test: (§2) Substrate activity at human N-terminal His-tagged SIRT2 (56 to 356 residues) expressed in Escherichia coli assessed as Vmax measured after 1 hr in presence of NAD+ and trypsin by Michaelis-Menten kinetic model based fluorescence assay
[8] = compound: CCCCCCCCCC(=O)NCCCC[C@H](NC(=O)[C@H](CC(=O)O)NC(=O)[C@@H](NC(=O)[C@H](CCC(=O)O)NC(C)=O)[C@@H](C)O)C(=O)Nc1ccc2c(C)cc(=O)oc2c1; test: as §2
[9] = compound: CCCCCCCCCCCCCC(=O)NCCCC[C@H](NC(=O)OCc1ccccc1)C(=O)Nc1ccc2c(C)cc(=O)oc2c1; test: as §2
[10] = compound: CCCCCCCCCC(=O)NCCCC[C@H](NC(=O)[C@@H](NC(=O)[C@H](CO)NC(=O)[C@H](CO)NC(C)=O)[C@@H](C)CC)C(=O)Nc1ccc2c(C)cc(=O)oc2c1; test: as §2
[11] = compound: CC(=O)NCCCC[C@H](NC(=O)[C@H](CC(C)C)NC(=O)[C@H](CCCCN)NC(=O)[C@H](Cc1ccc(O)cc1)NC(C)=O)C(=O)Nc1ccc2c(C)cc(=O)oc2c1; test: as §2
[12] = compound: CC(=O)NCCCC[C@H](NC(=O)OCc1ccccc1)C(=O)Nc1ccc2c(C)cc(=O)oc2c1; test: as §2
[13] = compound: CC[C@H](C)[C@H](NC(=O)[C@H](CC(C)C)NC(=O)[C@H](CCCNC(=N)N)NC(C)=O)C(=O)N[C@@H](CCCCNC(C)=O)C(=O)Nc1ccc2c(C)cc(=O)oc2c1; test: (§3) Substrate activity at human N-terminal His-tagged SIRT2 (56 to 356 residues) expressed in Escherichia coli assessed as ratio of Kcat to Km measured after 1 hr in presence of NAD+ and trypsin by Michaelis-Menten kinetic model based fluorescence assay
[14] = compound: CCCCCCCCCC(=O)NCCCC[C@H](NC(=O)[C@H](CC(=O)O)NC(=O)[C@@H](NC(=O)[C@H](CCC(=O)O)NC(C)=O)[C@@H](C)O)C(=O)Nc1ccc2c(C)cc(=O)oc2c1; test: as §3
[15] = compound: CCCCCCCCCCCCCC(=O)NCCCC[C@H](NC(=O)OCc1ccccc1)C(=O)Nc1ccc2c(C)cc(=O)oc2c1; test: as §3
[16] = compound: CCCCCCCCCC(=O)NCCCC[C@H](NC(=O)[C@@H](NC(=O)[C@H](CO)NC(=O)[C@H](CO)NC(C)=O)[C@@H](C)CC)C(=O)Nc1ccc2c(C)cc(=O)oc2c1; test: as §3
[17] = compound: CC(=O)NCCCC[C@H](NC(=O)[C@H](CC(C)C)NC(=O)[C@H](CCCCN)NC(=O)[C@H](Cc1ccc(O)cc1)NC(C)=O)C(=O)Nc1ccc2c(C)cc(=O)oc2c1; test: as §3
[18] = compound: CC(=O)NCCCC[C@H](NC(=O)OCc1ccccc1)C(=O)Nc1ccc2c(C)cc(=O)oc2c1; test: as §3
[19] = compound: CC[C@H](C)[C@H](NC(=O)[C@H](CC(C)C)NC(=O)[C@H](CCCNC(=N)N)NC(C)=O)C(=O)N[C@@H](CCCCNC(C)=O)C(=O)Nc1ccc2c(C)cc(=O)oc2c1; test: (§4) Substrate activity at human N-terminal His-tagged SIRT2 (56 to 356 residues) expressed in Escherichia coli assessed as Kcat measured after 1 hr in presence of NAD+ and trypsin by Michaelis-Menten kinetic model based fluorescence assay
[20] = compound: CCCCCCCCCC(=O)NCCCC[C@H](NC(=O)[C@H](CC(=O)O)NC(=O)[C@@H](NC(=O)[C@H](CCC(=O)O)NC(C)=O)[C@@H](C)O)C(=O)Nc1ccc2c(C)cc(=O)oc2c1; test: as §4
[21] = compound: CCCCCCCCCCCCCC(=O)NCCCC[C@H](NC(=O)OCc1ccccc1)C(=O)Nc1ccc2c(C)cc(=O)oc2c1; test: as §4
[22] = compound: CCCCCCCCCC(=O)NCCCC[C@H](NC(=O)[C@@H](NC(=O)[C@H](CO)NC(=O)[C@H](CO)NC(C)=O)[C@@H](C)CC)C(=O)Nc1ccc2c(C)cc(=O)oc2c1; test: as §4
[23] = compound: CC(=O)NCCCC[C@H](NC(=O)[C@H](CC(C)C)NC(=O)[C@H](CCCCN)NC(=O)[C@H](Cc1ccc(O)cc1)NC(C)=O)C(=O)Nc1ccc2c(C)cc(=O)oc2c1; test: as §4
[24] = compound: CC(=O)NCCCC[C@H](NC(=O)OCc1ccccc1)C(=O)Nc1ccc2c(C)cc(=O)oc2c1; test: as §4
[25] = compound: CC[C@H](C)[C@H](NC(=O)[C@H](CC(C)C)NC(=O)[C@H](CCCNC(=N)N)NC(C)=O)C(=O)N[C@@H](CCCCNC(C)=O)C(=O)Nc1ccc2c(C)cc(=O)oc2c1; test: (§5) Substrate activity at human N-terminal His-tagged SIRT1 (183 to 664 residues) expressed in Escherichia coli assessed as Vmax measured after 1 hr in presence of NAD+ and trypsin by Michaelis-Menten kinetic model based fluorescence assay
[26] = compound: CC(=O)NCCCC[C@H](NC(=O)[C@H](CC(C)C)NC(=O)[C@H](CCCCN)NC(=O)[C@H](Cc1ccc(O)cc1)NC(C)=O)C(=O)Nc1ccc2c(C)cc(=O)oc2c1; test: as §5
[27] = compound: CC[C@H](C)[C@H](NC(=O)[C@H](CC(C)C)NC(=O)[C@H](CCCNC(=N)N)NC(C)=O)C(=O)N[C@@H](CCCCNC(C)=O)C(=O)Nc1ccc2c(C)cc(=O)oc2c1; test: (§6) Substrate activity at human N-terminal His-tagged SIRT1 (183 to 664 residues) expressed in Escherichia coli assessed as ratio of Kcat to Km measured after 1 hr in presence of NAD+ and trypsin by Michaelis-Menten kinetic model based fluorescence assay
[28] = compound: CC(=O)NCCCC[C@H](NC(=O)[C@H](CC(C)C)NC(=O)[C@H](CCCCN)NC(=O)[C@H](Cc1ccc(O)cc1)NC(C)=O)C(=O)Nc1ccc2c(C)cc(=O)oc2c1; test: as §6
[29] = compound: CC[C@H](C)[C@H](NC(=O)[C@H](CC(C)C)NC(=O)[C@H](CCCNC(=N)N)NC(C)=O)C(=O)N[C@@H](CCCCNC(C)=O)C(=O)Nc1ccc2c(C)cc(=O)oc2c1; test: (§7) Substrate activity at human N-terminal His-tagged SIRT1 (183 to 664 residues) expressed in Escherichia coli assessed as Km measured after 1 hr in presence of NAD+ and trypsin by Michaelis-Menten kinetic model based fluorescence assay
[30] = compound: CC(=O)NCCCC[C@H](NC(=O)[C@H](CC(C)C)NC(=O)[C@H](CCCCN)NC(=O)[C@H](Cc1ccc(O)cc1)NC(C)=O)C(=O)Nc1ccc2c(C)cc(=O)oc2c1; test: as §7
[31] = compound: CC[C@H](C)[C@H](NC(=O)[C@H](CC(C)C)NC(=O)[C@H](CCCNC(=N)N)NC(C)=O)C(=O)N[C@@H](CCCCNC(C)=O)C(=O)Nc1ccc2c(C)cc(=O)oc2c1; test: (§8) Substrate activity at human N-terminal His-tagged SIRT1 (183 to 664 residues) expressed in Escherichia coli assessed as Kcat measured after 1 hr in presence of NAD+ and trypsin by Michaelis-Menten kinetic model based fluorescence assay
[32] = compound: CC(=O)NCCCC[C@H](NC(=O)[C@H](CC(C)C)NC(=O)[C@H](CCCCN)NC(=O)[C@H](Cc1ccc(O)cc1)NC(C)=O)C(=O)Nc1ccc2c(C)cc(=O)oc2c1; test: as §8

B1: NAD-dependent protein deacetylase sirtuin-2 (Homo sapiens), Q8IXJ6 (protein)
chain: MAEPDPSHPLETQAGKVQEAQDSDSDSEGGAAGGEADMDFLRNLFSQTLSLGSQKERLLDELTLEGVARYMQSERCRRVICLVGAGISTSAGIPDFRSPSTGLYDNLEKYHLPYPEAIFEISYFKKHPEPFFALAKELYPGQFKPTICHYFMRLLKDKGLLLRCYTQNIDTLERIAGLEQEDLVEAHGTFYTSHCVSASCRHEYPLSWMKEKIFSEVTPKCEDCQSLVKPDIVFFGESLPARFFSCMQSDFLKVDLLLVMGTSLQVQPFASLISKAPLSTPRLLINKEKAGQSDPFLGMIMGLGGGMDFDSKKAYRDVAWLGECDQGCLALAELLGWKKELEDLVRREHASIDAQSGAGVPNPSTSASPKKSPPPAKDEARTTEREKPQ
Km [1]: 41.6 µM
Km [2]: 16.5 µM
Km [3]: 1.7 µM
Km [4]: 1.2 µM
Km [5]: 106 µM
Km [6]: 274 µM
Vmax [7]: 36.1 nM/min
Vmax [8]: 61.9 nM/min
Vmax [9]: 1.63 nM/min
Vmax [10]: 25.5 nM/min
Vmax [11]: 81.9 nM/min
Vmax [12]: 26.3 nM/min
kcat/Km [13]: 289 M⁻¹ s⁻¹
kcat/Km [14]: 1250 M⁻¹ s⁻¹
kcat/Km [15]: 3.2 M⁻¹ s⁻¹
kcat/Km [16]: 3530 M⁻¹ s⁻¹
kcat/Km [17]: 129 M⁻¹ s⁻¹
kcat/Km [18]: 3.5 M⁻¹ s⁻¹
kcat [19]: 12 10^-3/s
kcat [20]: 20.6 10^-3/s
kcat [21]: 0.054 10^-3/s
kcat [22]: 4.25 10^-3/s
kcat [23]: 13.6 10^-3/s
kcat [24]: 0.98 10^-3/s

B2: NAD-dependent protein deacetylase sirtuin-1 (Homo sapiens), Q96EB6 (protein)
chain: MADEAALALQPGGSPSAAGADREAASSPAGEPLRKRPRRDGPGLERSPGEPGGAAPEREVPAAARGCPGAAAAALWREAEAEAAAAGGEQEAQATAAAGEGDNGPGLQGPSREPPLADNLYDEDDDDEGEEEEEAAAAAIGYRDNLLFGDEIITNGFHSCESDEEDRASHASSSDWTPRPRIGPYTFVQQHLMIGTDPRTILKDLLPETIPPPELDDMTLWQIVINILSEPPKRKKRKDINTIEDAVKLLQECKKIIVLTGAGVSVSCGIPDFRSRDGIYARLAVDFPDLPDPQAMFDIEYFRKDPRPFFKFAKEIYPGQFQPSLCHKFIALSDKEGKLLRNYTQNIDTLEQVAGIQRIIQCHGSFATASCLICKYKVDCEAVRGDIFNQVVPRCPRCPADEPLAIMKPEIVFFGENLPEQFHRAMKYDKDEVDLLIVIGSSLKVRPVALIPSSIPHEVPQILINREPLPHLHFDVELLGDCDVIINELCHRLGGEYAKLCCNPVKLSEITEKPPRTQKELAYLSELPPTPLHVSEDSSSPERTSPPDSSVIVTLLDQAAKSNDDLDVSESKGCMEEKPQEVQTSRNVESIAEQMENPDLKNVGSSTGEKNERTSVAGTVRKCWPNRVAKEQISRRLDGNQYLFLPPNRYIFHGAEVYSDSEDDVLSSSSCGSNSDSGTCQSPSLEEPMEDESEIEEFYNGLEDEPDVPERAGGAGFGTDGDDQEAINEAISVKQEVTDMNYPSNKS
Vmax [25]: 454 nM/min
Vmax [26]: 208 nM/min
kcat/Km [27]: 669 M⁻¹ s⁻¹
kcat/Km [28]: 226 M⁻¹ s⁻¹
Km [29]: 56.6 µM
Km [30]: 76.5 µM
kcat [31]: 37.9 10^-3/s
kcat [32]: 17.3 10^-3/s
